Publication PMC7473305 (Frontiers in Immunology, 2020)
Substitutions are numbered along the chain they refer to.

B1: 496.g3 IgG1 (bimekizumab) (antibody, V domains shown)
VH: EVQLVESGGGLVQPGGSLRLSCAASGFTFSDYNMAWVRQAPGKGLEWVATITYEGRNTYYRDSVKGRFTISRDNAKNSLYLQMNSLRAEDTAVYYCASPPQYYEGSIYRLWFAHWGQGTLVTVSS
VL: AIQLTQSPSSLSASVGDRVTITCRADESVRTLMHWYQQKPGKAPKLLIYLVSNSEIGVPDRFSGSGSGTDFRLTISSLQPEDFATYYCQQTWSDPWTFGQGTKVEIK
B2: 496.g1 Fab (Fab, V domains shown)
VH: B1 VH
VL: B1 VL with R30T, S54R, I56S, D60S, R72T
B3: 496.g3 Fab (Fab, V domains shown)
VH: B1 VH
VL: B1 VL

Columns and labels:
[1] = target: T1, cynomolgus macaque IL-17F (Macaca fascicularis, UniProt G7P4V0); test: SPR; Biacore T200, CM5 chip; IgG1 captured by F(ab')2 fragment-specific or Fcγ-specific goat anti-human IgG F(ab')2; cytokine titrated over it (10 nM IL-17F or 5 nM IL-17A and IL-17A/F downwards); HBS-EP pH 7.4, 25°C; details: both partners purified
T1 construct: interleukin-17F, cynomolgus macaque; source: generated at UCB

[2] = target: T2, cynomolgus macaque IL-17A (Macaca fascicularis, UniProt A0A2K5TTB0); test: as above; details: both partners purified
T2 construct: interleukin-17A, cynomolgus macaque; source: generated at UCB

[3] = target: human IL-17A/F heterodimer (Homo sapiens, UniProt Q16552;Q96PD4); test: cell-based or functional assay
[4] = target: T3, human IL-17A (generated at UCB) (Homo sapiens, UniProt Q16552); test: cell-based or functional assay
[5] = target: T4, human IL-17F (R&D Systems) (Homo sapiens, UniProt Q96PD4); test: cell-based or functional assay
[6] = target: T3, human IL-17A (generated at UCB); test: SPR; Biacore T200, CM5 chip; Fab captured on immobilised anti-human F(ab')2; cytokine titrated over it; HBS-EP pH 7.4, 25°C; details: both partners purified
[7] = target: T4, human IL-17F (R&D Systems); test: as above; details: both partners purified

T3 sequence (Q16552 24-155): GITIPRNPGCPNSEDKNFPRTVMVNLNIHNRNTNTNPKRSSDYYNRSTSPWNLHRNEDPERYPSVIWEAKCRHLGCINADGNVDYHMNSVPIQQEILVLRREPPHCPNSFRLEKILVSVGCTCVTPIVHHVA
T4 sequence (Q96PD4 31-163): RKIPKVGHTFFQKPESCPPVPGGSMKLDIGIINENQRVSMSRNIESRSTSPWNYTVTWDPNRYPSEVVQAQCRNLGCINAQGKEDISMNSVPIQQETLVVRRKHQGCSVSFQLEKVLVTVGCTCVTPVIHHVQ
Chain of human IL-17A/F heterodimer (Q16552 24-155, chain 1 of 2): as the sequence (Q16552 24-155) above
Chain of human IL-17A/F heterodimer (Q96PD4 31-163, chain 2 of 2): as the sequence (Q96PD4 31-163) above

Binder | Kd [1] [pM] | Kd [2] [pM] | IC50 of neutralization of IL-17A/F (30 ng/mL, with TNF 1 ng/mL): IL-6 production by NHDFs [3] [µg/mL] | IC50 of neutralization of IL-17A (1 ng/mL, with TNF 1 ng/mL): IL-6 production by NHDFs [4] [µg/mL] | IC50 of neutralization of IL-17F (30 ng/mL, with TNF 1 ng/mL): IL-6 production by NHDFs [5] [µg/mL] | Kd [6] [pM] | Kd [7] [pM]
B1 | 345 | 12.3 | 0.0489 | 0.0004 | 0.0321 |  | 
B2 |  |  |  |  |  | 29.2 | 1510
B3 |  |  |  |  |  | 7.2 | 
